Data taken from article PMC5862502, “Coordinated regulation of Arabidopsis microRNA biogenesis and red light signaling through Dicer-like 1 and phytochrome-interacting factor 4”.

Molecular target: T1, PIF4-MBP (phytochrome-interacting factor 4) (Arabidopsis thaliana, UniProt Q8W2F3 1-430)
T1 sequence: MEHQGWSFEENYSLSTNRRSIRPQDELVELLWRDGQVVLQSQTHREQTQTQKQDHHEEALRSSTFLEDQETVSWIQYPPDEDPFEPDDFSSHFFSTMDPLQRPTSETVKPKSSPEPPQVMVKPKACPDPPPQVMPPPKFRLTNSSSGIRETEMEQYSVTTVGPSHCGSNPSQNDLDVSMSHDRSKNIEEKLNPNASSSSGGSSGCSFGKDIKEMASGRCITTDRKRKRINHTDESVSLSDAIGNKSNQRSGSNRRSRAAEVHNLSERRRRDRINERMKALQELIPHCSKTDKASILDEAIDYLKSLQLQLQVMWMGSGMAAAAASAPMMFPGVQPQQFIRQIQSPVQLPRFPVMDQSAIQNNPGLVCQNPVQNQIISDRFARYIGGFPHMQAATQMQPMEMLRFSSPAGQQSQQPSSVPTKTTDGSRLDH
Assay: EMSA; 1 nM labeled probe; decreasing amounts of PIF4; unlabeled same-sequence competitor in lane 8; LightShift Chemiluminescent EMSA kit buffer (composition not given), 20 ul, 30 min on ice, 1x TBE polyacrylamide gel
Settings: protein: recombinant; tags: MBP; chain copies: 2; label: 3' biotin on sense strand; blunt

B1: miR160b promoter G-box fragment (dsDNA)
DNA 1: AGACACGTGTAGAAATCTTCTAAACCC
DNA 2: GGGTTTAGAAGATTTCTACACGTGTCT
  binding result: binds
